Laboratory results published in paper PMC9981700 (2023).

Biological target: T1, Notch2 (Leu26–Gln530), recombinant protein (UniProt Q04721 26-530)
T1 chain: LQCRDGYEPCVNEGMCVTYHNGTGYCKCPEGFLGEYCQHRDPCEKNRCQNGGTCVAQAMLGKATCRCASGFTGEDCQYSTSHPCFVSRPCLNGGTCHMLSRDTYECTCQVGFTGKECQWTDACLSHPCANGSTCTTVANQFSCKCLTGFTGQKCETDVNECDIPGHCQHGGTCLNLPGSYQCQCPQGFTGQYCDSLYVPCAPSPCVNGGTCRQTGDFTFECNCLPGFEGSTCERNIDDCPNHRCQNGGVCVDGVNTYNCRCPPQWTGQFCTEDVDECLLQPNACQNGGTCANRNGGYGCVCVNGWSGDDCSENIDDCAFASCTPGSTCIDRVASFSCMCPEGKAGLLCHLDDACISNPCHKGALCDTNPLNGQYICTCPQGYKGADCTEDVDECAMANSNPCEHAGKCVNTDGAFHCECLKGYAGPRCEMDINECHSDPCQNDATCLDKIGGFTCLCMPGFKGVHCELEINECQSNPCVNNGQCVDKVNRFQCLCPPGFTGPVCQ
Test: BLI

B1: Fibulin2 (Ala28–Leu1184), recombinant protein (natural protein)
chain: APRQDCTGVECPPLENCIEEALEPGACCATCVQQGCACEGYQYYDCLQGGFVRGRVPAGQSYFVDFGSTECSCPPGGGKISCQFMLCPELPPNCIEAVVVADSCPQCGQVGCVHAGHKYAAGHTVHLPPCRACHCPDAGGELICYQLPGCHGNFSDAEEGDPERHYEDPYSYDQEVAEVEAATALGGEVQAGAVQAGAGGPPAALGGGSQPLSTIQAPPWPAVLPRPTAAAALGPPAPVQAKARRVTEDSEEEEEEEEEREEMAVTEQLAAGGHRGLDGLPTTAPAGPSLPIQEERAEAGARAEAGARPEENLILDAQATSRSTGPEGVTHAPSLGKAALVPTQAVPGSPRDPVKPSPHNILSTSLPDAAWIPPTREVPRKPQVLPHSHVEEDTDPNSVHSIPRSSPEGSTKDLIETCCAAGQQWAIDNDECLEIPESGTEDNVCRTAQRHCCVSYLQEKSCMAGVLGAKEGETCGAEDNDSCGISLYKQCCDCCGLGLRVRAEGQSCESNPNLGYPCNHVMLSCCEGEEPLIVPEVRRPPEPAAAPRRVSEAEMAGREALSLGTEAELPNSLPGDDQDECLLLPGELCQHLCINTVGSYHCACFPGFSLQDDGRTCRPEGHPPQPEAPQEPALKSEFSQVASNTIPLPLPQPNTCKDNGPCKQVCSTVGGSAICSCFPGYAIMADGVSCEDINECVTDLHTCSRGEHCVNTLGSFHCYKALTCEPGYALKDGECEDVDECAMGTHTCQPGFLCQNTKGSFYCQARQRCMDGFLQDPEGNCVDINECTSLSEPCRPGFSCINTVGSYTCQRNPLICARGYHASDDGTKCVDVNECETGVHRCGEGQVCHNLPGSYRCDCKAGFQRDAFGRGCIDVNECWASPGRLCQHTCENTLGSYRCSCASGFLLAADGKRCEDVNECEAQRCSQECANIYGSYQCYCRQGYQLAEDGHTCTDIDECAQGAGILCTFRCLNVPGSYQCACPEQGYTMTANGRSCKDVDECALGTHNCSEAETCHNIQGSFRCLRFECPPNYVQVSKTKCERTTCHDFLECQNSPARITHYQLNFQTGLLVPAHIFRIGPAPAFTGDTIALNIIKGNEEGYFGTRRLNAYTGVVYLQRAVLEPRDFALDVEMKLWRQGSVTTFLAKMHIFFTTFAL
Question: B1 was tested. Which Kd did it give?
Answer: 1.22 nM
